Test: yeast display, Sf9 membrane polyspecificity reagent, FACS + sequencing; frameworks hold sequencing errors
Procedure, shortened: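 Nanobodies came from a synthetic yeast display library in Saccharomyces cerevisiae BJ5465, induced with galactose for 36–48 hours and stained for 1 hour at 4 °C with 10% biotinylated, detergent-solubilized Sf9 membrane reagent. Cells were enriched on streptavidin microbeads and then FACS-sorted, with low and high (top ~1%) gates set on anti-HA fluorescence for expression and streptavidin fluorescence for reagent binding. Each polyreactivity label reflects the gate a clone came from. Genes were amplified by colony PCR, sequenced by MiSeq 2 × 250 and filtered by CDR length.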

| Sequence | polyreactivity (PSR sort gate) |
| --- | --- |
| QVQLVESGGGLVQAGGSLRLSCAASGIIFVRNAMGWYRQAPGKERELVAAITWRGSTYYADSVKGRFTISRDNAKNTVYLQMNSLKPEDTAVYYCAAQWLYLEYDYWGQGTQVTVSS | high polyreactivity |
| HVQLVESGGGLVQAGGSLRLSCAASGINFSWYPMGWYRQAPGKERELVAAISSSGGTTFYADSVKGRFTISRDKAKNTVYLQMNSLKPEDTAVYYCAVVGPPYYTWRVWRPAYDYWGQVTQVTVSS | high polyreactivity |
| QVQIVESGGGLVQAGGSLRLSCAASGSILYEYAMGWYRQAPGKERELVAAISSGDSTNYADSVKGRFTISRDNAKNTVYLQMNSLNPEDTAVYDCNRDFPRERFTYKFDYWGQGTQVTVSS | low polyreactivity |
| QVQLVESGGGLVQAVGSLRLSCAASGSIFGAYAMGWYRQAPGKERELVAAITSGGSTNYADSVKGRFTISRDNAKNTVYLQMNSLKPEDTAVYYCAARRRYAKFRYDYWGQGTQVTVSS | high polyreactivity |
| QVQLVESGGGLVQAGGSLSLSCAASGGIFQVNSMGWYRQATGKEREVLAAISWSVGRTYYADSVKGRFTISRDNAKNTVYLQMNSLKPEDTAVYYCARYGKRGYYYWGQGTQVTVSS | low polyreactivity |
| QVQLVESGGGLVQAGGSLRLSCAASGSIFITYAMGWYRQAPGKERELVAAIRDSGDRTYYADSVKGRFTISRDNAKNTVYLQMNSLKPEDTEVYYCNALWQEPLKYDYWGQGTQVTVSS | low polyreactivity |
| QVQLVESGGGLVQAGGSLRLSCPASGRTFYTNAMGWYRHAPGKERELVAAITRGGSTYYADSVKGRFTISRDNAKNTVYLQMYSLKPEDTAVYYCAAAYASSWRQRVTSEKGYYWGQGTQVTVSS | high polyreactivity |
| QVQLVESGGGLVQAGGSLRLSCAASGFTFVRYAMGWYRQAPGKERELVAAISRSSGSTYYADSVKGRFTISRDNAKNTVYLQMNSLKPEDTAVYYCARRYGRYSGTYDYWGQGTQVTVSS | high polyreactivity |
| QVQLVESGGGLVQAGGSHRLSCAASGITFTVNSMGWYRQAPGKERELVAAISNDGSTYYADSVKGRFTISRDNAKNTVYLQMNSLKPEDTAVYYCAADTWDDFGPYGYDYWGQGTHVTVSS | low polyreactivity |
| QVQLVESGGGLVKAGGSLGLSCAASGRTLRYYAMGWYRQAPRKERELVASISIGGSTYYADSVKGRFTISRDNAKNTVYLQMNSLKPEDTAVYYCATDYSNSGYGYWGQCTQVTVSS | low polyreactivity |
| QVQLVESGGGLVQAGGSLRLSCAASGRIFDINAMGWYIQAPGKERELVAAINYNGSSTYYADSVKGRFTISRDNAKNTVYLQKNSLKPEDTAVYYCATVQVDVYTYDYWGQGTKVTVSS | high polyreactivity |
| QVQLVESGGGLVQAGGSLRLSCAASGYIFSANAMGWYRQAPGKEREFVAAISSTGGSTYYADSVKGRFTISRDNAKNTVYLQMNSLKPEDTAVYYCAAYIRRYFHYDYWGQGTQVTVSS | high polyreactivity |
| QVQLVESGGGLVQAGGSLRLSSAASGRIFRGYTMGCSRQAPGKDRELVAAISRSGTRTYYADSVKGRFPISRDNAKNTGYLQMNSLTPEDTAVYDCAVDSTTAGTGMGYWGQGTQVTVSS | high polyreactivity |
| QVQLVDSGGGLVQAGGSLRLSCAASGSTFKIYAMGWYRQAPGKERELVARITGRGGSTYYADSVKGRFTISRDNAKNTVYLQMNSLKPEDTAVYYCAAAKRYYSEMYWGQGTQVTVSS | high polyreactivity |
| QVQLVESGGGLVQAGGSLRLSCAASGLIFGWYAMGWYRQAPGKEREFVASIRYGGGSTYYADSVKGRFTISRDNAKKTVYLQMNSLKPEDTAVYYCAAELSVDKYDYWGQGTQETVSS | low polyreactivity |
| QVQLVESGGGLVQAGGSLRLSCAASGFILARYAMGWYRQAPGKERELVAVISSGGSSTFYADSVKGRFTISRDNAKNTVYLQMKSLKPEDTAVYYCAARYKSSKKVGFDYWGQGTQVTVSS | high polyreactivity |

| Sequence | polyreactivity (PSR sort gate) |
| --- | --- |
| QVQLVESGGGLVQAGGSLRLSCAASGFTFVYYAMGWYRQAPGKERELVAAISQSGSSTYYADSVKGRFTISRDNPKNTVYLQMNSLKPEDTAVYYCNVYYASRPTYDFGYWGQVTQVTVSS | high polyreactivity |
| QVQLVESGGGLVQAGGSLRLSCAASGSIFPLYAMGWYRQAPGKERELVAAITSNGGRTYYADSVKGRFTISRDNAKNTVYLQMNSLKPEDTAVYYCNKYLLDYRRGRSDYWGQGTQVTVSS | low polyreactivity |
| QVQLVESGGGLVQAGGSLRLSCAASGSIFTGNAMGWYRQAPGKERELVAAIRRSGA | low polyreactivity |
| QVQLVESGGGLVQAGGSLRLSCAASGSTFLRYAMGWYREAPGTERELVAAISVSGGSTYYADSVKGRFTISRDNAKNTVYLQMNSLKPEYTAVYYCIAVTKFHRRYNYWGQGTQVTVSS | high polyreactivity |
| QVQLVESGGGLVQAGGSLRISSAASGRIFRVNGIGWYIQAPGKERELVAAIRRSGGSTYYADSVKGRFTISRDNAKNSVYLLMNILKPDDTAVYFCAAPVRQSSYTRYDSWGQGTQVTVSS | high polyreactivity |
| QVQLEESGAGLVQAGGSLRLSCAASGRTFWFYTMGLYRQAPGKERELVAAISSAGSTNYADSVKGRFTISRDNAKNTVYLQMNSLKPEDTAVYYCNARFPVGPSEDAVWYYPKYDYWGQGTQVTVSS | low polyreactivity |
| QVQLVESGGGLDQAGGSLRLSCAASGFIFTVYAMGWYRQAPGKEREVVAAISSGGSTYYADSVKGRFTISRDNAKNTVYLQMNSLKPEDTADYYCAAQPSYRYYKSYDSWGQGTQVTVSS | high polyreactivity |
| QVQLVESGGGLVQAGGSLRLSCAASGSIFRYYAMGWYRQAPGKERELVAAISSGTITNYADSVKGRFTISRDNAKNTVYLQMNSLKPEDTAVYYCAADTWYLGYPDYWLDYWGQGTQVTVSS | low polyreactivity |
| QVQLVESGGGLVQAGGSLRLSCAASGSTIGDNAMGWYRQAPGIERELGASMSWSGASTYYADSVKGRFTISRDNAKNTVYLQMNCLKPDDTAVYYCGVYYSYYSHLYHMLFYYWGQGTQVTVSS | low polyreactivity |
| QVQLVESGGGLVQAGGSLRLSCAASGRIFGRNAMGWYIQAPGTERELVAAISKSGTSTYYADSVKGRFTISRDNAKNTVYLQMNSLKPEDTAVYYCAAALPGYGDYYYWGQGTQVTVSS | high polyreactivity |
| QVQLVESAGGLVQAGGSLRLSCAPSGRIFPVNSMGSYRQAPGKERELVATMSSGDITNYADSVKGRFTISRDNATITVYLQMNCLKPEDNAVYYCARDSKRLARYYYWGQGTQVTVSS | low polyreactivity |
| QVQLVESGGGLVQAGGSLRLSCAASGSILVGNAMGWYRQAPGKERELVAAISKSGSSTHYADSVKGRFTISRDNAKNTVYLQMNSLKPEDTAVYYCNAVGRVYRAKYDYWGQGTQVTVSS | high polyreactivity |
| QVQLVESGGGLVQAGGSLRLSCAASGFTIRRNAMGWYRQAPGKERELVAAISRSGGSTYADSVKGRFTISRDNAKNTVYLQMNSLKPEDTAVYYFASDHSDYRYTYTALIAEFYYWGQGTQVTVSS | low polyreactivity |
| QVQLVESGGGLVQAGGSLRLSCAASGSTFVYNDMGWYRQAPGKEREFVAAITYSGSTYYADSVNGRFTISRDNAKNTVYLQMNSLKPEDTAVYYCNADPRRPVTSYDYWGQGTQVTVSS | low polyreactivity |
| QVQLVESGGGLVQAGGSLRLSCAASGFTFYSYDMGWYRQAPGKERELVAVITERGSSTYYADSVKGRFTISRDNAKNTVYLQMNSLKPEDTAVYYCAAYSEYYGVYYWGQGTQVTVSS | low polyreactivity |
| QVQLVESGGGLVQAGGSLRLSCAASGRIFNAYAMGWYRQAPGKERELVASISWSGGSTFYADSVKGRFTISRDNAKNTVYLQMNSLKPEDTAVYYCNADRRSSRHWWSITAYEYWGQGTQVTVSS | high polyreactivity |
